Test results published in the supplement of paper PMC9170038.

These sequences were tested on K4 kissing-loop RNA reporter (assay: apparent KD of K4 kissing-loop reporter; higher = weaker reporter binding). Details: Eterna round: R107; input ligand: FMN 200 uM.
Experimental: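 RNA-MaP round R107: designed RNA switches with theophylline, tryptophan, arginine or FMN aptamers are transcribed on-chip within common flanks. They are titrated with a labelled K4 kissing-loop RNA reporter in RNA-MaP buffer (100 mM Tris pH 7.5, 80 mM KCl, 4 mM MgCl2), without ligand or with the indicated ligand. Median apparent KD per design.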
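Further: bound reporter read as fluorescence of individual clusters on recovered sequencing chips by microscopy, with normalized cluster intensities fitted with a binding model.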

Sequence | apparent KD of K4 kissing-loop reporter [nM]
UGAUACCAGACGGCCGCCACUACACCAGUCAAAGACUGGAUGUGAUGUCUGACCAGUGAUGUUGGUAGGACCGGGUCUGGUAUCU [TrypBX 6 #Palindromic #SwitchBubble #StaticStem] | 246
GGUAUCUAUACAGAUACCAGUCGUACGGCUGCAUUACAGGUUAGUGAUGUUAACCUGUACGACCCUUGGCAGCUGUAUAGUAGUA [#14 K4 Theophylline B Exclusion] | 115
CGUUUCUCUGUCGAUACCAGCUUCAGUUGGCGGCCAGUGAUGUUGGUAUCGCCGAUGCCAAGCCCUUGGCAGCGACAUGAGACCC [Gezausin] | 169
CUUGGAAGGACGGCCGCCACUGGGCAGUGAUGUUGCCCGAGUUGGUAACGCAGUGAUGUUGCGUCCAGGACCGGGUCCUAGGAAU [Exclusion Tryptophan B GF 25] | 141
UAGAUAAUGUAAGAUUAUGAUAAUUGGGAAGGAGCGCGGAAAUUCGCAGGUAGGUCGCCCUAUAAAGUAGUACGAGUGAUGUUCG [6.)] | 217
AAGUCUCGUUAAUUCGUGGUUUCGAUCGAUACCAGUAGCGAGAGGUACCCUUGGCAGCGAAAUGAGUGAUGUUCAUGAAAGAAGA [KL-XTheoA11] | 101
GUAGCACUUGACAGUGAUGUUGUCAAGGGCAAGGAUAUCACCUCAGUGAGAAGGUGUCCUUGAUAACUGCUACGGGAAUAUCCCA [Omei KL FMN A Exc D v7] | 603
UGACUGGACUGAAGGAGCGCUUAACUCCUAGUGAUGUUAGGAAAACGAGACAAAGUCUCGAAGCAGGUAGGUCGCAGUCUAGUCU | 152
GCCAGUGAUGUUGGCAUUUCGAGCCAUGAAGGAGCGCACGGAAGUGCAGGUAGGUCGCAUGGUACUUAGGAUAUUACCCUAAGUA [Isterare] | 206
CAUACGCAUGGAGGAUAUGAGAUUUCUCAUAUUAUUUAAUAUUCUCAGUGAUGUUGAGAUAUAAACUCAGAAGGCCAUGUGUAUG [Ex FMN B 2] | 340
ACCACCUGUCUGGAUACCAGUCUUCGAGUGAUGUUGGAAGUUAGCCGGUUCUAUUACCUAGACCCUUGGCAGCCAGGAAUUAUAG [theeternabot_exclusion_KL_Theo_B_17] | 1140
CGUGAAUGUCGUCAGUCAUCGGUCCAUGCACGAGGACCGGUACGGCCGCCACUCGAGCGUGGCAGUGAUGUUGCCAGCGCACUAA [KL-XTryp-A13] | 138
CCUGCAGCUGUUACCGAGGGAUGCUACGGACGAGGACCGGUACGGCCGCCACUCGCCAGUGAUGUUGGUGAGGGAGGACGUUCCU [Georte] | 100
UUAUCAUCAGCGGCCGCCACUGCAAAUUGGAGUGAUGUUCCAAGCGUGGAUAAUGAAAUCACUAGUAGGACCGGGUUGAUGAAUU [AK 1 Ex Trypt B] | 309
CGCAGUGAUGUUGCGAGUUUGAUCAGGGAAGGAGCGGCUCAGAAGCCAGGUAGGUCGCCCACGCAGUGAUGUUGUGUAUUCGGGU [Exclusion Arginine A GF 1] | 96.9
UGCCGCAAGGCGAGCGCUCCCACUCCGGAAGGAGCGCCCGGAAGGGCAGGUAGGUCGCCGGAGUGAUGUUCCGGUGGAGGGCUCG [#2 Exclusion - Arginine A Attempt #26 (Inspired by Omei)] | 462
CCUAUCUCAUACGAUACCAGUCAAUGAUCUUUGAUCAAUGCCAUCACCGAGUGAUGUUCGGACCCUUGGCAGCGUAUGAGAUAGG [whbob_Ex_Theo_B_sa103] | 277
AUUUAAUUAACUGAUACCAGACUUUUUGUUUUGAUAAUUACUAGUGAUGUUAGUGUUUCUGUCCCUUGGCAGCAGUAUCUACUUA [JR_ExcTheophyB_Sub017] | 121
UUGAGCCGGACUUAAGUCCGGCUCUGCGAGCGAGGACCGGUACGGCCGCCACUCGGUGCAGUGAUGUUGCAUGGCCGCAAGGCCG [#2 Exclusion - Tryptophan A Attempt #11 (HarryS)] | 269
GGAGGGAUCUCGGCCGCCACUCAUAAGAAAUGGGCCUCAGAAAUAUAGUGAUGUUAUGUAAAGAAGAGGACCGGGAGAAAGAAGG [ExTryptoB.Da] | 390
UGGAGUUGACGAAAAGUCAACUCCUGAGAAGGAGCGCACGAAAGUGCAGGUAGGUCGCUCUACCAGUGAUGUUGGUACUUAAUAA [#OpenEnded 6] | 92.1

Sequence | apparent KD of K4 kissing-loop reporter [nM]
ACGGUUUCCACGGCCGCCACUUGCGCAUUAGAUCUUACCCUAGGAGUGAUGUUCCAUACAAGUACAAGGACCGGGUGGGACAUAA [theeternabot_sameState_KL_Trp_B_28] | 257
CCGUGGAGUGAUGUUCCACGUUCUACGGAUACCAGUUGUGCCAGCGGCCCUUGGCAGCCGCACCUUGCAGUGAUGUUGUGAGGCU [Same State Theophylline A Gf 6] | 238
UGAUUUAACUGAAGGAGCGGCAAUUGAUAAGUAAAUAUAGUGAUGUUAUAUAAGAGAGAGAGCCAGGUAGGUCGCAGAGGGAGGA [ExArgB.I] | 205
AAUUCAGUGAUGUUGGAAGGCAGGCGGGAUACCAGCGGAGAAUAACGCCCUUGGCAGCCCAUAUAUCCCAAAUAGAUAAUAGUUC [Same State - Theophylline A (Freestyle 3)] | 386
GCAGUGAUGUUGCACGAGUAGGCUGGAGUACGAGGACCGGUACGGCCGCCACUCGUACGAUAGUCGCUAAUUUAUGGAAUGGUGA [#08 K4 Tryptophan A Same State] | 458
CUGCAACAUAACUUCUUCGUCCUAGAAGACUAGGAUAUCAGGAAACUGAGAAGGAGUCUCUGCAGUGAUGUUGCAGCUAGGACGA [[K]'-[F2]'-[F1]'-[F1]-[F2]-[K1]-[K2]-[F]''_Design3] | 195
UCAUGAAAGACGGCCGCCACUGAUGCUGGAGUGAUGUUUCGGACAUAGUAGAGUGAUGUUCUGCGCAGGACCGGGUCGUCAUGAA [KL-SSTryp-B10 #double Kiss] | 132
AGCAGUCACUCGAAAACCAUCGAAGAUGGACGAGGACCGGUACGGCCGCCACUCGGAGUGAUGUUCCGAAGACUGCAAAAUAAAA [#SwitchBubble 16] | 380
AUGGGUUGUUGAAGGAGCGCCGCCAGUGAUGUUGGGAGUUAGAUACCAGUGAUGUUGGGCCGGCAGGUAGGUCGCGGCGAUUUAU [Exclusion Arginine B GF 19] | 347
GGCUUGCUAGUGAUGUUAGCAUUUUCUGAAGGAGCGCGUGAAAACGCAGGUAGGUCGCAGAACCUUGCCAACUAUUUUAGUUGCC [Ex Arginine A K4 27] | 101
GUUACGCAUGGAAGGAGCGCAGGCUCAACAAAUAGCUCAGUGAUGUUGAGCAUAUUAAUUCUGCAGGUAGGUCGCCAUGUGUAAC [Ex Arginine B K4 25] | 531
UUUUUUUACUGAAGGAGCGGCAAUUGAUACGUAGAUAUAGUGAUGUUAUAUAAGAUAGAGAGCCAGGUAGGUCGCAGAUUUUUUU [ExArgB.W] | 153
GGGAGUAGUGCGGCCGCCACUGUGAAAGAAGAAGAAUAUAGUGAUGUUAUAUAGGAAAGGAAGAAUAGGACCGGGCAUUAGAUUU [SSTRyptB.K] | 213
AAUUUAGUGACGGCCGCCACUAGGGUGAUUUAUUUGUUUGAGUGAUGUUUUGAUGUUUGAUUUUGUAGGACCGGGUUAGGUGAUG [dddcmullin] | 354
GGCACUUUUGCUUGGAACCGUCAAGCUCGAUAGGAUAUGCCGAAAGGCAGAAGGAUUGACCUACAGAGUGAUGUUCUGCGUGCCU | 791
AGUACAAUGGCGGCCGCCACUCAACGCAGAUCAAAGAUCUGCGAUCACUCAGUGAUGUUGAGUGAGAGGACCGGGCCUUUGUACA [Omei KL Tryp B SS B v6] | 354
GUUAAAUAAAUGGGCAUAGUGAUGUUGUGUCGAGGACCGGUACGGCCGCCACUCGAGCUAGCAUGCCGGUCAUUAUGGGUAGUUU [theeternabot_exclusion_KL_Trp_A_46] | 112
UUGAGCCUGACGGAAGUCAGGCUCUGCGAGCGAGGACCGGUACGGCCGCCACUCGGUGCAGUGAUGUUGCAUGGCCGCAAGGCCG [#2 Exclusion - Tryptophan A Attempt #16 (HarryS)] | 311
ACGUAGUUCUAGGAUACCAGCCAAGGUGCCAGGACAAAAGUCCUGGCAGCCAGUGAUGUUGGCCCUUGGCAGCCUAGAACUACGA [Omei KL Theo B Exc B v7] | 164
UAUAGAGUGACGGCCGCCACUAUUGUGAUUUAAUUGUUUGAGUGAUGUUUUGAUGUUUGAUUUUGUAGGACCGGGUUAUAUGUUA [zdzzmullin] | 959
CUCCGACUAUCGGCCGCCACUAUCGGAAAGUCCACGGACAUUCAAUGCAGUUAGUGAUGUUAACGUAGGACCGGGAUGAUUUGUA [theeternabot_sameState_KL_Trp_B_9] | 543

Same assay, conditions: Eterna round: R107; input ligand: arginine 13.2 mM

Sequence | apparent KD of K4 kissing-loop reporter [nM]
UGAUACCAGACGGCCGCCACUACACCAGUCAAAGACUGGAUGUGAUGUCUGACCAGUGAUGUUGGUAGGACCGGGUCUGGUAUCU [TrypBX 6 #Palindromic #SwitchBubble #StaticStem] | 303
GGUAUCUAUACAGAUACCAGUCGUACGGCUGCAUUACAGGUUAGUGAUGUUAACCUGUACGACCCUUGGCAGCUGUAUAGUAGUA [#14 K4 Theophylline B Exclusion] | 94
CGUUUCUCUGUCGAUACCAGCUUCAGUUGGCGGCCAGUGAUGUUGGUAUCGCCGAUGCCAAGCCCUUGGCAGCGACAUGAGACCC [Gezausin] | 163
CUUGGAAGGACGGCCGCCACUGGGCAGUGAUGUUGCCCGAGUUGGUAACGCAGUGAUGUUGCGUCCAGGACCGGGUCCUAGGAAU [Exclusion Tryptophan B GF 25] | 113
UAGAUAAUGUAAGAUUAUGAUAAUUGGGAAGGAGCGCGGAAAUUCGCAGGUAGGUCGCCCUAUAAAGUAGUACGAGUGAUGUUCG [6.)] | 205
AAGUCUCGUUAAUUCGUGGUUUCGAUCGAUACCAGUAGCGAGAGGUACCCUUGGCAGCGAAAUGAGUGAUGUUCAUGAAAGAAGA [KL-XTheoA11] | 124
GUAGCACUUGACAGUGAUGUUGUCAAGGGCAAGGAUAUCACCUCAGUGAGAAGGUGUCCUUGAUAACUGCUACGGGAAUAUCCCA [Omei KL FMN A Exc D v7] | 136
UGACUGGACUGAAGGAGCGCUUAACUCCUAGUGAUGUUAGGAAAACGAGACAAAGUCUCGAAGCAGGUAGGUCGCAGUCUAGUCU | 123
GCCAGUGAUGUUGGCAUUUCGAGCCAUGAAGGAGCGCACGGAAGUGCAGGUAGGUCGCAUGGUACUUAGGAUAUUACCCUAAGUA [Isterare] | 177
CAUACGCAUGGAGGAUAUGAGAUUUCUCAUAUUAUUUAAUAUUCUCAGUGAUGUUGAGAUAUAAACUCAGAAGGCCAUGUGUAUG [Ex FMN B 2] | 198
